Here are results for 77 variants from the supplement of paper PMC7125110.

± gives the standard error. This sample holds only a part of the variants without activity.

To fix the notation:
B1: glmS ribozyme (parent)
chain: AUAAAAGCGCCAGAACUACAGAAAUGUAGUUGACGAGGAGGAGGUUUAUCGAAUUUUCGGCGGAUGCCUCCAAA

In this series the parent is B1. In words: self-cleavage kobs at 10000 uM GlcN6P; higher = faster cleavage; RNA array. The settings on record: with glucosamine-6-phosphate. A digest of the protocol: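 Tracking of barcoded ribozyme variants used a hybridised Cy3 probe at 37 °C, after in situ transcription by E. coli RNA polymerase on sequenced MiSeq chips. The flowed solution held 40 μM to 10 mM glucosamine-6-phosphate in HEPES/KCl/Mg(OAc)2 buffer, and imaging ran over ~14 h. kobs was taken from exponential decay fits of normalised per-tile medians, and kcat and KM from weighted Michaelis–Menten fits.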
On to A12G U46A C71G, for which the “self-cleavage kobs at 10000 uM GlcN6P” value is 3.42e-05 ± 1.3e-05 s⁻¹. For C16G A36C C58U C70G, the “self-cleavage kobs at 10000 uM GlcN6P” value turned out to be 4.92e-05 ± 2.2e-05 s⁻¹. The value for C58A G60C was less than 1e-05 s⁻¹; that for A15G C16U U47C U65A U69C was 6.04e-05 ± 2.9e-05 s⁻¹. As to C11G A36C G37C U46G G60A, the “self-cleavage kobs at 10000 uM GlcN6P” value was less than 1e-05 s⁻¹. The value for C11A A12C U31C U49A was less than 1e-05 s⁻¹. The value for A14G A15G U47C U55A C70G was 0.000483 ± 0.00014 s⁻¹; that for U30A A33G C61G C70A was less than 1e-05 s⁻¹. As for U45G U57G, the figure is 3.68e-05 ± 9e-06 s⁻¹; as for A36U A42U C61U, less than 1e-05 s⁻¹. Regarding C8A A48U G66U, the “self-cleavage kobs at 10000 uM GlcN6P” value is less than 1e-05 s⁻¹. As for U31G A53G U69C, the figure is 0.00324 ± 0.00093 s⁻¹; as for A15U G40U U54A, 7.33e-05 ± 1.6e-05 s⁻¹. The value for C11A C16G C58U C68A was 0.000263 ± 8.9e-05 s⁻¹. As for A6G G7A C16G U47A A53C C58A, the figure is less than 1e-05 s⁻¹; as for U31A C58U, 4.45e-05 ± 6.1e-06 s⁻¹.

Turning to A14U A42G U47C, the “self-cleavage kobs at 10000 uM GlcN6P” value was determined as 0.000229 ± 8.1e-05 s⁻¹. As for G37A U45A C61U C67U, the figure is less than 1e-05 s⁻¹; as for G40C A64G C71U, 0.00117 ± 0.00019 s⁻¹. The value for G35C G44A U46G was less than 1e-05 s⁻¹; that for A12G G40A U55C was 9.22e-05 ± 2e-05 s⁻¹.

Consider G32U U55A C58G, for which the “self-cleavage kobs at 10000 uM GlcN6P” value was 0.000755 ± 0.00011 s⁻¹. The value for C8A U45A A52G C61G C67U was less than 1e-05 s⁻¹; that for G32A U69G C71A was 4.49e-05 ± 1.6e-05 s⁻¹. As for C11U U57C, the figure is 5.06e-05 ± 1.6e-05 s⁻¹; as for A15G A52G C71U, 0.00137 ± 0.00021 s⁻¹; as for G7A U30G A33G U69G, 0.000162 ± 2.9e-05 s⁻¹.

For the variant A15C G44A A53G, the “self-cleavage kobs at 10000 uM GlcN6P” value is 5.76e-05 ± 1.5e-05 s⁻¹. As to C11G C50G C68G C71U, the “self-cleavage kobs at 10000 uM GlcN6P” value is 8.16e-05 ± 1.7e-05 s⁻¹. For A36U G59U G60C, the “self-cleavage kobs at 10000 uM GlcN6P” value was less than 1e-05 s⁻¹.

With A12U G44U A52G, the “self-cleavage kobs at 10000 uM GlcN6P” value stood at 4.49e-05 ± 1.9e-05 s⁻¹. As for U45C U65G C67U, the figure is 0.000112 ± 2.2e-05 s⁻¹; as for G40U G43U G62A, less than 1e-05 s⁻¹. On to C8G G51U U69G, for which the “self-cleavage kobs at 10000 uM GlcN6P” value was 0.00122 ± 0.00049 s⁻¹. G13U U46C: the “self-cleavage kobs at 10000 uM GlcN6P” value is 3.18e-05 ± 1.1e-05 s⁻¹. The value for A12C A52U C67G was 0.000146 ± 3.5e-05 s⁻¹; that for A6C A36U U69A was less than 1e-05 s⁻¹; that for C34U G38C G60C was less than 1e-05 s⁻¹. The value for A14U G40A U54A was 0.000245 ± 8.4e-05 s⁻¹; that for A6C U47G U49C C67U was less than 1e-05 s⁻¹; that for A36C A39U C67U was less than 1e-05 s⁻¹. The value for C19U C68U was 0.00423 ± 0.0011 s⁻¹.

As to A15C G41U G66A, the “self-cleavage kobs at 10000 uM GlcN6P” value is 0.000194 ± 4.9e-05 s⁻¹. The value for A12U A14G G41A A42G was 0.000918 ± 0.0002 s⁻¹. As for G32U U57A, the figure is 6.86e-05 ± 8.1e-06 s⁻¹; as for A52U A53C G62C, less than 1e-05 s⁻¹; as for G32C A48C U55C G59A G63A, less than 1e-05 s⁻¹. The value for A33U A39C A48C was less than 1e-05 s⁻¹; that for G7A G29C G32U U57C C58A was less than 1e-05 s⁻¹.

Take A33C C50A C67G C68G: the “self-cleavage kobs at 10000 uM GlcN6P” value came out at 7.88e-05 ± 2.1e-05 s⁻¹. With C8G C16U C68A, the “self-cleavage kobs at 10000 uM GlcN6P” value was less than 1e-05 s⁻¹. As for G32C G35C U49C C68A, the “self-cleavage kobs at 10000 uM GlcN6P” value is less than 1e-05 s⁻¹. As for G9U G41A C50U G60C, the figure is less than 1e-05 s⁻¹; as for G38C U45C U49A A53U, less than 1e-05 s⁻¹; as for G59A C68G C70U, less than 1e-05 s⁻¹. The value for A12U C16A G35A A42C G59U C71U was less than 1e-05 s⁻¹. As to A6U U45G G66A, the “self-cleavage kobs at 10000 uM GlcN6P” value came to 0.000175 ± 4.1e-05 s⁻¹. The value for A12G C58A C70G was 3.02e-05 ± 1.3e-05 s⁻¹; that for A42G U46A A64G was 0.00462 ± 0.0009 s⁻¹; that for C16G U45C C67G was 0.000811 ± 0.00018 s⁻¹. As for C34A G66U C67G, the figure is less than 1e-05 s⁻¹; as for G7U A42U C67G, less than 1e-05 s⁻¹; as for A48G C58U A64U, less than 1e-05 s⁻¹. As for G13C A42G U65C, the figure is less than 1e-05 s⁻¹; as for A6C G32C G41C C58U U65A, less than 1e-05 s⁻¹. As for U46C U49A, the “self-cleavage kobs at 10000 uM GlcN6P” value is less than 1e-05 s⁻¹. In the case of G43A U57C G59U A64U, the “self-cleavage kobs at 10000 uM GlcN6P” value is less than 1e-05 s⁻¹. As for C10U A42G, the figure is 3.17e-05 ± 7.6e-06 s⁻¹. Regarding A14U G32U U46C, the “self-cleavage kobs at 10000 uM GlcN6P” value stood at 4.16e-05 ± 1.4e-05 s⁻¹.

For the variant A14C U31C G41A, the “self-cleavage kobs at 10000 uM GlcN6P” value came to 7.28e-05 ± 1.8e-05 s⁻¹.

Turning to C11U U31C A42G A53U, the “self-cleavage kobs at 10000 uM GlcN6P” value came out at 0.000372 ± 8e-05 s⁻¹. G9U G41U A42G A52U A64U C68U: the “self-cleavage kobs at 10000 uM GlcN6P” value is less than 1e-05 s⁻¹. The value for C10A A36U G59A G60A was less than 1e-05 s⁻¹; that for C8A G38A G40C U57C was less than 1e-05 s⁻¹. As for G41U C67G C68A, the figure is 0.000314 ± 0.00012 s⁻¹; as for G9C G13C A14U U31A A48G C61A, less than 1e-05 s⁻¹; as for A14G G37C U45A U49C G59U, less than 1e-05 s⁻¹.
